Experimental data: the nanobody polyreactivity screen of Harvey et al. (2022)

Test: yeast display, Sf9 membrane polyspecificity reagent, FACS + sequencing; frameworks hold sequencing errors
In short: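 Nanobodies from a synthetic yeast display library (Saccharomyces cerevisiae BJ5465), induced 36–48 hours with galactose, were stained 1 hour at 4 °C with 10% biotinylated, detergent-solubilized Sf9 membrane reagent, enriched on streptavidin microbeads, then FACS-sorted. Anti-HA (expression) and streptavidin (reagent binding) fluorescence set low and high (top ~1%) gates. Polyreactivity labels come from the gate of origin. Genes were colony-PCR amplified, MiSeq 2 × 250 sequenced and filtered by CDR length.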

Sequence	polyreactivity (PSR sort gate)
QVQLVESGGGLVQAGGSLRLSCAASGFTFIRYAMGWYRQAPGKERELVATITRRGGSTYYADSVTGRFTISRDNAKNTVYFQMNSLKPEDTAVYDCNRDYVTYGQYYYWGQGTQVTVSS	high polyreactivity
QVQLVESGGGLVQAGGSLRLSCAASGSITGLNAMGWYRHAPGKERELVAAIYRSGGRTYNADSVKGRFTISRDNAKNTVYLQMISLKPEDTAVYYCAAVTTWRLDYWGQGTQVTVSS	high polyreactivity
QVQLVESGGGLVQAGGSLRLSCAASGRTFVGYAMGWYRQSPGKERELVAAISTSGGRTYYADSVKGRFTISRDNAKYTVYLQMNSLKPEDTAVYYCAAGFRASIGYVTEYYWGQGTQVTVTS	high polyreactivity
QVQLVESGGGLVQAGGSLRLSCAASGSIFRKNAMGWYRPAPGKERELVATISGGGSTTYADSVKGRFTISRDNAKNTVYVHMNSLKPEDTAVYYCAARSTWFQLRYGYGGQGTQVTVSS	high polyreactivity
QVQLVESGGGLVQAGGSLRLSCAASGSTFYQYAMGWYRQAPGKERELVARITYNGGRTYYADSVKGRFTISRDNAKNTVYLQMNSLKPEDTAVYYCAARRWSTGGYGQFDYWGQGTQVTVSS	low polyreactivity
QVQLVESGGGLVQAGGSLRLSCAPSGSTFPLYAMGWYRQAHGNEREFVAAIRWIGGSTYYADSVKGRFTISRDNAKNTVYLQMNSLKPEDTAVYYCAADYVVSAFDYWGQGTQVTVSS	low polyreactivity
QVHLVESVGGLVQAGGSLRLSCAASGYIFGGYAMAWYRQAPGKERELVAAISRSGGSTYYADSVKGRFTISRDNAKNTVYLQINSLKPVDTAVYYCAVRGYTLPYGYWGQGTQVTVSS	high polyreactivity
QVQLVESGGGLVQAGGSLRLSCAASGNTFEYYVMGWYRQAPGKERELVAAITWSTGSTYYADSVKGRFTISRDNAKNTVYLQMNSLKPEDTAVYYCNAAYVYYYPHYRYAPTAVDYDYWGQGTQVTVSS	low polyreactivity
QVQLVESGGGLVQAGGSLRLSCAASGRTFRGNAMGWYRQAPGKERELVAAISRSGGTTYYADSVKGRFTISRDNAKNTVYLQMNSLKPEDTAVYYCNRGWATWHGPDDYWGQGTQVTVSS	high polyreactivity
QVQLVESGGGLVQAGGSLRLSCAASGRIFPEYAMGWYRQAPGKERELVAAITSGGHYADSVKGRFTISRDNAKNTVYLQINSLKPEDTAVYYCSALNVYGSADVTTLEMDYWGQGTLVTVSS	low polyreactivity
QVQLVESGGGLVQAGGSLRLSCAASGFTLKYNTMGWYRQAPGKERELVAAITSSGVSTYYSDSVKGRFTISRDNAKNTVYLQMNSLKPEDTAVYYCNARERYSYWGQGTQVTVSS	high polyreactivity
QVQLVESGGGLVQAGGSLRLSFAASGNIFSFNDMGWYRQAPGQERELVAAITSSDSTNYADSVKGRFTISRDNAKNTVYLQMNSLKPEDTAVYYCATEILTAARETVVYQFYLGYYYWGQGTQVTVSS	low polyreactivity
QVQLVESGGGLVQAGGSLRLSCDASGSTFSYYTMGWYRQAPGKERELVAAITGSGGRTYYADSVKGRFTISRDNAKNTVYLQMNSLKPEDSAVYYCAARLYTAADHYNYWGQGTQVTVSS	high polyreactivity
QVQLVESGGGLVQAGGSLRLSCAASGRTFVLYAMGWYRQAPVKERELVASITWSGVSTTYADSVKGRFTISRDNAKNTVYLQMNSLKPEDTAVYYCAKDGLFEQGYPYQLGYWGQGTQVTVSS	low polyreactivity
QVQLVESAGGLVQAGGSLRLSCAASGSIFSRNAMGWYRPAPGKERELVAAITWSGGSTYYADSVKGRFTISRDNAKNTVYLQMNSLKPEDTAVYYCNAKRSSRIKQLEYDYWGQGTQVTVSS	high polyreactivity
QVQLVESGGGLVQAGGSLRLSCAASGSIFYLYAMGWYRQAPGKERELVASIRWSGGNTYYADSVKGRFTISRDNAKNTVYLQMNSLKPEDTAVYYCAARTSTHGSSYSIRRFGYWGQGTQVTVSS	high polyreactivity
QVQLVESGGGFVQAGGSLRLICADSGRIFGRYAMGWYRQAPGKERELVAVISARGARTYYADSVKGRFTLSRDNAKNTDYLQMNSLKPEATEVYYCAVDQYATDDYWGQGTQVTVSS	high polyreactivity
QVQLVESGGGLVQAGGSLRLSCAASGRTFLVYAMGWYRQAPGKERELVAAISSDGSTNYADSVKGRFTISRDNAKNTVYLQMNSLKPEDTAVYYCARDGRTEHRGFDYWGQGTQVTVSS	low polyreactivity
QVQLVESGGGLVQAGGSLRLSCAASGGIFRYYAMGWYRQAPGKERELVAAISKRGGSTYYADSVKGRFTISRDNAKNTVYLQMNSLKPEDTAVYYCAAEGYYGSSYGYWGQGTQVTVSS	high polyreactivity
QVQLVESGGGLVQAGGSLRLSCAASGFLFRYYTMGWYRQAPGKERDLVAVITRGGSTYYADSVKGRFTISRDNAKNTVYLQMNSLKPEDTAVYYCAAVRTKVWRGPEMDYWGQGTQVTVSS	high polyreactivity
QVKLVESGGGLVQAGGSLRISCAASVSIFPVYAMGWYRQAPGKERELVAAISSRGGRTYYADSVKGLFTISRDNAKNTVYLQMNSLKPEDNAVYYFATDYSTYYRLPSQYDYWGQGTQVTVSS	low polyreactivity
QVQLVESGGGLVQAGGSLRLSCAASGSIFGVNAMGWYRQAPGKERELVASISLSDDRTYYADSVKGRFTISRDNAKNTVYLQMNSLKPEDTAVYYCARRILWYWDVYPSLAEYDYWGQGTQVTVSS	low polyreactivity

Sequence	polyreactivity (PSR sort gate)
QVLLVESGGGLVQAGGSLRLSCSASGSTSRFYAMGWSRQEPGKERELVAAINKSGTRTYYADSVKGRFTISRDNAKNTVYLQMNSLKPEDTAVYYCAADQGTYGYGGFYYWGLGTQVTVSS	high polyreactivity
QVQLVESGGGLVQAGGSLSLSCADSGRNFAPYAMGWYRQAPGKERELVAAITSGGSTNYADSVKGRFTISRDNAKNTVYLQMNSLKPEDTAVYYCAARQPGTRYPYDYWGQGTQVTVSS	high polyreactivity
QVQLVESGGGLVQAGGSLRLSCAASGSTSVKYAMGWYRQAPGKERELVAAIRKRGDSTYYADSVKGRFTISRDNAKYSVYLQMNSLKAEDTAVYYCAAQYLRGRGYWGQGTQVTVSS	low polyreactivity
QVHLVESGGALVQAGGSLRLSCAASAYTFSYYAMGWYRQAPGKEMELVAAITSTGSTYYADSVKGRFTISRDNAKNTVYLQMNSLKPEDTAVYYCNVDDATVGPVDYWGQGTQVTVSS	low polyreactivity
QVQLVESGGGLVQAGGSLRLSCAASGRIFGKYAMGWYRQAPGKERELVAVITSRDGRTYYADSVKGRFTISRDNAKNTVYLQMNSLKPEDTAVYYCAADLVNGHYYYWGQGTQVTVSS	low polyreactivity
QVQLVESGGGLVQAGGSLRLSCAASGSTFVTYAMGWYRQAPGKERELVAAIDSGGNTNYADSVKGRFTISRDNAKNTVYLQMNSLKPEDTAVYYCAVRPYELHRLDDQPGGDDYWGQGTQVTVSS	low polyreactivity
QVQLVESGGGLVQAGGSLRLSCAASGRIIAYNTMGWNRQAHWKERDWVAAISSRGGRTYYADSVKGRFTISRDNAKNTVYLEMNSLKPEDTAVYYCAAKYYRYGDPDRYDYWGQGTQVTVSS	high polyreactivity
QVQLVESGGGLVQAGGSLRLSCAASGRIFVPYAMGWYRQAPGKERELVAGITSGSRTNYADSVKGRFTISRDNAKYTVYLQMNSLKPEDTEVYYCNALDFRYYGIFDYWGQGTQVTVSS	high polyreactivity
QVQLVESGGGLVQAGGSLRLSCAASGFTFFLNAMVWSRPAPGKERELVAAITYSGDSTYYADSVKGRFTISRDNAKNTVYLQMNSLKPEDTAVYYCAAASKFGLYEYEYWGQGTQVTVSS	low polyreactivity
QVQLVETGGGLVQAGGSLRLSCAASGFIFRYYAMGWYRPAPGKERELVAVISSNGARTSYADSVKGRFTISRDNAKNTVYLQMNSLKPEDTADYYCNARAWSRFPPVGHDYWGQGTQVTVSS	high polyreactivity
QVQLVESGGGLVQAGGSLRLSCAASGRTFTLYAMGWSRPAPGKERELVAAIRWSGSSTYYADSVKGRFTISRDNSKNTVYLQMNSLKPEDTAVYYCAARAGRYDRYGYWGQGTQVTVSS	high polyreactivity
QVQLVESGGGLVQAGGSLRLSCAASGRTFYQYAMGWYRQAPGKERELVAAISKSGRRTYYADSVKGRFTISRDNAKNTVYLQINSLKPEDTAVYYCNAARYLTRWGRFYYWGEGTQVTVSS	high polyreactivity
QVHLVESGGGLVQAGGSLRLSCAASGLIIRYYAMGWYRQAPWKERELVAAITSRGGSTYYADSVKGRFKISRDNAKNTVYLQMNSLKPEDTAVYSCAAGLIFVSRFYVPYDYWGQGTQVTVSS	high polyreactivity
QVQLVESGGGLVQAGGRLRLSCAASGGTFYTYFMGWYRQAPGKERELVAAISQSGGRTYYADSVKGRFTISRDNAKNTVYLQMISLKPEDTAVYYCAAPDESYSFWRLDGLDYWGQGTQVTVSS	high polyreactivity
QVQLVESGGGLVHAGGSLRLSCAASGSIFSAYAMGWYRQAPGKERELVAAISRSGGRTYYADSVKGRFTISRDNAKNTVYLQMNSLKPEDTAVYYCAAYFTYYSTLGRWYRYDYWGQGTQVTVSS	high polyreactivity
QVQLVESGGGLVQAGGSLRLSSAASGSTFRKNAMGWYRQAPGKERELVASISISGGRTNYADSVKGRFTISRDNAKNTVYLQMNSLKPEDTAVYYCAKQVKSYRTRYTFDYWGQGTQVTVSS	high polyreactivity
QVQLVESGGGLVQAGGSLRLSCAASGLILSDYAMGWYRQAPGKERELVATITSVGTTKYADSVKGRFTISRDNAKNTVYLQMNSLKPEDTAVYYCAVEWYQGTTYSISYLYDYWGQGTQVTVSS	low polyreactivity
QVQLVESGGGLVQAGGSLRLSCAASGSTFLHYAMGWYRQAPGKEREFTYYADSVKGRFTISRDNAKNTVYLHMNSLNPEDTAVYYCNAGPYWSPYGDDFGYWGQGTQVTVSS	low polyreactivity
QVQLVESGGGLVQAGGSLRLSSAHSGFIFAHNARGRYRQAPGKERELVAAITSSGGSTYYADSVKGRFRISRDNAKNTVYLQMNSVKPEDTAVYYCNDYTYARRGYDEWGQGTQVTVSS	high polyreactivity
QVHLVESGGGLVQAGGSLRLSCAASGITFYLYAMGRYRQAPAKERELVAAINASGGSTYYADSVKGRFTISRDNAKNTVYLQMNSLKPEDSGVYYCAASTKKTRGFNYWGQGSQVTVSS	high polyreactivity
QVQLVESGGGLVQAGGSLRLSCADSGSTLIGNAMGWYRQAPGKERELVAAISSGGRTYYADSVKGRFTISRDNAKNTVYLQMNSLKPEDTAVYYCAADTVGTNVVSPELDYWGQGTQVTVSS	low polyreactivity
